Assay results: publication PMC5511190

Each binder was assayed against GST-LRRK2 WD40 G2385R (human) (UniProt Q5S007) (assay: affinity purification with mass spectrometry; 5 µg GST fusion protein on glutathione-Sepharose incubated with adult mouse brain lysate or crude SV fraction (LP2) (1 mg protein) 2 h at 4 °C; washes 150 mM NaCl, 2 mM EDTA, 50 mM Tris-HCl, 0.2% Triton, pH 7.4; LC-MS/MS with label-free quantification, 4 samples per condition (GST-control, GST-WD40, GST-WD40-G2385R)).
GST-LRRK2 WD40 G2385R (human), sequence (Q5S007 whole entry G2385R, the tested form may be a part): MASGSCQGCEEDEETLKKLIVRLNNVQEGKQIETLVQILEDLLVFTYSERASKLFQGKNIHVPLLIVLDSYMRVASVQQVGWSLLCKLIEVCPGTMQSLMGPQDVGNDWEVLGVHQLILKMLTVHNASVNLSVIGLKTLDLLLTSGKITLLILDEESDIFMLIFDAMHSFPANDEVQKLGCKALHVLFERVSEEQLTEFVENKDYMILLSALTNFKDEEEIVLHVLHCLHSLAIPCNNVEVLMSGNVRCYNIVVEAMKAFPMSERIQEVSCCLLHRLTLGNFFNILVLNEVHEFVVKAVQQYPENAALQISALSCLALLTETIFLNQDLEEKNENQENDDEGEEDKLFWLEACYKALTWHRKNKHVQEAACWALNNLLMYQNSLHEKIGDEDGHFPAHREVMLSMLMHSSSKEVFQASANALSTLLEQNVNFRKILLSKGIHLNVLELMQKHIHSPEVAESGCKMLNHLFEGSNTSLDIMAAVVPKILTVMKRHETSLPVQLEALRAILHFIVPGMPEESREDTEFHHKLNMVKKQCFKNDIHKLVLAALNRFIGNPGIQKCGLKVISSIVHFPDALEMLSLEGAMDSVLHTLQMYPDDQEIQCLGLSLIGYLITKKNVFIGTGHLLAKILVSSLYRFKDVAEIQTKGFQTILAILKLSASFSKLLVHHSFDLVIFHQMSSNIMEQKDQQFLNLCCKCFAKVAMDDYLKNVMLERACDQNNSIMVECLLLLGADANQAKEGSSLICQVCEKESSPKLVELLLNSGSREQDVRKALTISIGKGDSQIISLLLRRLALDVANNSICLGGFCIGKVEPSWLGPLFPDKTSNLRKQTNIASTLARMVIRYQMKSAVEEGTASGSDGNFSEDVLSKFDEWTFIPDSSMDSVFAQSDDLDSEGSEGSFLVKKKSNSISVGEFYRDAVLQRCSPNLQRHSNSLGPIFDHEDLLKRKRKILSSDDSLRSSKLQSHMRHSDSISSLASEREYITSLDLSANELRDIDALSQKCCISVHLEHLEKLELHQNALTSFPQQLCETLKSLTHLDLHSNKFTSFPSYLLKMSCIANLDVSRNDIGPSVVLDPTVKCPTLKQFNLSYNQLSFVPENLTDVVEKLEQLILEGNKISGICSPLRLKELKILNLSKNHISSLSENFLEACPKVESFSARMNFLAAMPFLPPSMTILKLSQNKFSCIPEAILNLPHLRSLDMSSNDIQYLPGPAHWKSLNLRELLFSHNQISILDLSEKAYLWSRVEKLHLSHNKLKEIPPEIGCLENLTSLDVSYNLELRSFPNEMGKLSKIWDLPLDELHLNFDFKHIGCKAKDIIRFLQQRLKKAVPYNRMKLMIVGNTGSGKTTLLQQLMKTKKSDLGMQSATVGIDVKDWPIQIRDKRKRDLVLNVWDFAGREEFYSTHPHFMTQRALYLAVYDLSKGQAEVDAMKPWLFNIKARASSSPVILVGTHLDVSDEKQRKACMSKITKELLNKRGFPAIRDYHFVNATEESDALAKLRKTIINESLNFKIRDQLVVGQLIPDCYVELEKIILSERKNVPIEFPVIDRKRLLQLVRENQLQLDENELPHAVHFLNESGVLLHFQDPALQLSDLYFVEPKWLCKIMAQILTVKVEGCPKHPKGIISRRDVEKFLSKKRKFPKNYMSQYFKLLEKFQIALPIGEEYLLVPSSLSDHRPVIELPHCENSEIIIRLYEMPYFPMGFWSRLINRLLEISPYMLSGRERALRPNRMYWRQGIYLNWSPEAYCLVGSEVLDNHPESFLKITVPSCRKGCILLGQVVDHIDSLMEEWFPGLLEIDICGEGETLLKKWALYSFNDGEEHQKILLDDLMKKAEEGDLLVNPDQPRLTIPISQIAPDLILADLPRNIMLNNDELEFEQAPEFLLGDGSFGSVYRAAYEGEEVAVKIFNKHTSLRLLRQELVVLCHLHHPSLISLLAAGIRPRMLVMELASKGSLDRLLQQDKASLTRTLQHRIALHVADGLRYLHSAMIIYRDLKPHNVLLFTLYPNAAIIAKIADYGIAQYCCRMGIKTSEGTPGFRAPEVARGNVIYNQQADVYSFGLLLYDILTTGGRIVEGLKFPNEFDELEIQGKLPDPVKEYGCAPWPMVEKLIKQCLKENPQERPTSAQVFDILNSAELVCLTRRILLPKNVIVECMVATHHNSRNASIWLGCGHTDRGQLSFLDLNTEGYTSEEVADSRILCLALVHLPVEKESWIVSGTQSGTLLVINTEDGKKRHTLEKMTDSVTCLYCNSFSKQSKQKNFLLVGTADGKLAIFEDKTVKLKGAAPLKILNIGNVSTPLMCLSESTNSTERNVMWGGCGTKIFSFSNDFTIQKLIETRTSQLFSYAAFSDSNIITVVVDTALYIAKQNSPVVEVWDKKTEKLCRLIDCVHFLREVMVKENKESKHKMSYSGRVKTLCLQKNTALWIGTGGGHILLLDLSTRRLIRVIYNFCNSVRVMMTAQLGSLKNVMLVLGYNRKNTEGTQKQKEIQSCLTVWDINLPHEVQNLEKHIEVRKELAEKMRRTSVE

G2385R/WT (ratio of abundance in G2385R versus wild-type bait)	Binder
0.58	CaM kinase-like vesicle-associated protein (natural protein) MPFGCVTLGDKKNYNQPSEVTDRYDLGQVIKTEEFCEIFRAKDKTTGKLHTCKKFQKRDGRKVRKAAKNEIGILKMVKHPNILQLVDVFVTRKEYFIFLELATGREVFDWILDQGYYSERDTSNVVRQVLEAVAYLHSLKIVHRNLKLENLVYYNRLKNSKIVISDFHLAKLENGLIKEPCGTPEYLAPEVVGRQRYGRPVDCWAIGVIMYILLSGNPPFYEEVEEDDYENHDKNLFRKILAGDYEFDSPYWDDISQAAKDLVTRLMEVEQDQRITAEEAISHEWISGNAASDKNIKDGVCAQIEKNFARAKWKKAVRVTTLMKRLRAPEQSGTAATQSASDAATPGAAGGAIAAAAAAAAAGGAASASGASATAATEGGAGCAAKSDDIASADRSATPATDGSATPATDGSVTPATDGSITPATDGSVTPATDRSATPATDGRATPATEESTVPATQSSALPAAKAAATPEPAVAQPDSTALEGATGQAPPSSKGEEATGCAQESQRVETS
0.34	WD repeat-containing protein 1 (natural protein) MPYEIKKVFASLPQVERGVSKILGGDPKGDHFLYTNGKCVILRNIDNPAIADIYTEHAHQVVVAKYAPSGFYIASGDISGKLRIWDTTQKEHLLKYEYQPFAGKIKDIAWTEDSKRIAVVGEGREKFGAVFLWDTGSSVGEITGHNKVINSVDIKQTRPYRLATGSDDNCAAFFEGPPFKFKFTIGDHSRFVNCVRFSPDGNRFATASADGQIFIYDGKTGEKVCALGESKAHDGGIYAISWSPDSTHLLSASGDKTSKIWDVNVNSVVSTFPMGSNVLDQQLGCLWQKDHLLSISLSGYINYLDKNNPSKPLRVIKGHSKSIQCLTVHRNGGKSYIYSGSHDGHINYWDSETGENDSFSGKGHTNQVSRMTVNESEQLVSCSMDDTVRYTNLTLRDYSGQGVVKLDVQPKCVAVGPGGYTVVVCIGQIVLLKDQKKCFSIDNPGYEPEVVAVHPGGDTVAVGGTDGNVRVYSILASTLKDEGKLLEAKGPVTDVAYSHDGAFLAVCDASKVVTVFSVADGYSENNVFYGHHAKIVCLAWSPDNEHFASGGMDMMVYVWTLSDPETKVKIQDAHRLHHVSSLAWLDEHTLVTTSHDASVKEWTITY
0.15	Guanine deaminase (natural protein) MCAARTPPLALVFRGTFVHSTWTCPMEVLRDHLLGVSDSGKIVFLEESSQQEKLAKEWCFKPCEIRELSHHEFFMPGLVDTHIHAPQYAFAGSNVDLPLLEWLNKYTFPTEQRFRSTDVAEEVYTRVVRRTLKNGTTTACYFGTIHTDSSLILAEITDKFGQRAFVGKVCMDLNDTVPEYKETTEESVKETERFVSEMLQKNYPRVKPIVTPRFTLSCTETLMSELGNIAKTHDLYIQSHISENREEIEAVKSLYPSYKNYTDVYDKNNLLTNKTVMAHGCYLSEEELNIFSERGASIAHCPNSNLSLSSGLLNVLEVLKHKVKIGLGTDVAGGYSYSMLDAIRRAVMVSNVLLINKVNEKNLTLKEVFRLATLGGSQALGLDSEIGNFEVGKEFDALLINPRASDSPIDLFYGDFVGDISEAVIQKFLYLGDDRNIEEVYVGGKQVVPFSSSV
0.37	Profilin-2 (natural protein) MAGWQSYVDNLMCDGCCQEAAIVGYCDAKYVWAATAGGVFQSITPVEIDMIVGKDREGFFTNGLTLGAKKCSVIRDSLYVDGDCTMDIRTKSQGGEPTYNVAVGRAGRVLVFVMGKEGVHGGGLNKKAYSMAKYLRDSGF

The remaining lines, values behind:

Binder	G2385R/WT (ratio of abundance in G2385R versus wild-type bait)
14-3-3 protein theta (natural protein) MEKTELIQKAKLAEQAERYDDMATCMKAVTEQGAELSNEERNLLSVAYKNVVGGRRSAWRVISSIEQKTDTSDKKLQLIKDYREKVESELRSICTTVLELLDKYLIANATNPESKVFYLKMKGDYFRYLAEVACGDDRKQTIENSQGAYQEAFDISKKEMQPTHPIRLGLALNFSVFYYEILNNPELACTLAKTAFDEAIAELDTLNEDSYKDSTLIMQLLRDNLTLWTSDSAGEECDAAEGAEN	0.35
14-3-3 protein eta (natural protein) MGDREQLLQRARLAEQAERYDDMASAMKAVTELNEPLSNEDRNLLSVAYKNVVGARRSSWRVISSIEQKTMADGNEKKLEKVKAYREKIEKELETVCNDVLALLDKFLIKNCNDFQYESKVFYLKMKGDYYRYLAEVASGEKKNSVVEASEAAYKEAFEISKEHMQPTHPIRLGLALNFSVFYYEIQNAPEQACLLAKQAFDDAIAELDTLNEDSYKDSTLIMQLLRDNLTLWTSDQQDEEAGEGN	0.52
14-3-3 protein beta/alpha (natural protein) MTMDKSELVQKAKLAEQAERYDDMAAAMKAVTEQGHELSNEERNLLSVAYKNVVGARRSSWRVISSIEQKTERNEKKQQMGKEYREKIEAELQDICNDVLELLDKYLILNATQAESKVFYLKMKGDYFRYLSEVASGENKQTTVSNSQQAYQEAFEISKKEMQPTHPIRLGLALNFSVFYYEILNSPEKACSLAKTAFDEAIAELDTLNEESYKDSTLIMQLLRDNLTLWTSENQGDEGDAGEGEN	0.37
